Experimental data as given in PMC2917276 (Acta Crystallographica Section D: Biological Crystallography, 2010).

Biological target: T1, Recombinant human IL-13 (human, UniProt P35225)
T1 construct: interleukin-13, human, recombinant; source: bought: R&D Systems (catalog No. 213-IL/CF), reconstituted in PBS pH 7.4
Assay: SEC; Fab mixed with IL-13 at a Fab:IL-13 molar ratio of 1:1.2, 20 min at 277 K; Superdex 200 10/300 in 20 mM HEPES pH 7.5, 0.1 M NaCl; elution compared with the free Fab
Conditions: both partners purified

T1 sequence (P35225 35-143): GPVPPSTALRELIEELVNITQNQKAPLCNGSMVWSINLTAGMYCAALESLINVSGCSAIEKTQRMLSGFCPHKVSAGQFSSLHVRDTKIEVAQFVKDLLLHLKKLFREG

| Binder | binding result |
| --- | --- |
| C836 Fab (Fab, V domains shown, mouse VH of hybridoma mAb C836 joined to the human G1 constant region (Fab part); mouse VL of hybridoma mAb C836 joined to the human kappa constant region; Chimeric Fab; also called His-tagged C836 Fab) VH: QVTLKESGPGILQPSQTLSLTCSFSGFSLSTYGMGVGWIRQPSGKGLEWLAHIWWDDVKRYNPALKSRLTISKDTSGSQVFLKIASVDTSDTATYYCARMGSDYDVWFDYWGQGTLVTVSA VL: DVQITQSPSYLAASPGETITLNCRASKSISKYLAWYQEKPGKTNKLLIYSGSTLQSGIPSRFSGSGSGTDFTLTISSLEPEDFAMYFCQQHNEYPYTFGGGTKLEIK | binds |
| H2L6 Fab (Fab, V domains shown, humanized version of C836 (CDRs grafted into human variable framework segments), human G1 constant domain; humanized version of C836 (CDRs grafted into human variable framework segments), human kappa constant domain) VH: QVTLKESGPVLVKPTETLTLTCTVSGFSLSTYGMGVGWIRQPPGKALEWLAHIWWDDVKRYNPALKSRLTISKDTSKSQVVLTMTNMDPVDTATYYCARMGSDYDVWFDYWGQGTLVTVSS VL: EIVLTQSPATLSLSPGERATLSCRASKSISKYLAWYQQKPGQAPRLLIYSGSTLQSGIPARFSGSGSGTDFTLTISSLEPEDFAVYYCQQHNEYPYTFGQGTKLEIK | binds |
| M1295 Fab (Fab, V domains shown, human G1 constant domain; human kappa constant domain) VH: QVTLKESGPVLVKPTETLTLTCTVSGFSLSTYGVGVGWIRQPPGKALEWLAHIWWDDVKRYNPALKSRLTISKDTSKSQVVLTMTNMDPVDTATYYCARLGSDYDVWFDYWGQGTLVTVSS VL: EIVLTQSPATLSLSPGERATLSCRASKSISKYLAWYQQKPGQAPRLLIYSGSTLQSGIPARFSGSGSGTDFTLTISSLEPEDFAVYYCQQHDYPYTFGQGTKLEIK | binds |
